Laboratory results as given in publication PMC4049228 (Science (New York, N.Y.), 2014).

Target: T1, Ricinus communis ATXR5 (RcATXR5 a.a. 158–374; nSET and SET domain) (Ricinus communis, UniProt B9RU15 158-374)
T1 sequence: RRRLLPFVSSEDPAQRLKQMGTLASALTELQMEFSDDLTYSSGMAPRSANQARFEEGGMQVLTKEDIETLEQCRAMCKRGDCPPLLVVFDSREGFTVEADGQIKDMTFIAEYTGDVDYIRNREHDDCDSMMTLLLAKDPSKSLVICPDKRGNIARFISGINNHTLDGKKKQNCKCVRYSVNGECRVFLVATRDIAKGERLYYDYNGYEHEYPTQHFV
Assay: crystal structure

B1: histone H3.1 peptide (a.a. 18–36) (peptide)
peptide: KQLATKAARKSAPATGGVK
- binding result: binds
